From article PMC3751554

Key:
[1] = target: TRIMCypA from Macaca mulatta (Macaca mulatta)
[2] = target: TRIMCypA from Macaca fascicularis (Macaca fascicularis)
[3] = target: owl monkey TRIMCypA fusion protein (owl monkey (Aotus sp.))

HIV-2ROD capsid (CA) (natural protein)
restriction of infection: ratio of infection titers on CHO cells stably expressing mamu-TRIMCypA over control CHO cells (infectivity ratio) [1]: < 0.2

SIVgsn capsid (CA) (natural protein)
restriction of infection: ratio of infection titers on CHO cells stably expressing mafa-TRIMCypA over control CHO cells (infectivity ratio) [2]: < 0.4

SIVmnd1 capsid (CA) (natural protein)
restriction of infection: ratio of infected cells in CHO cells stably expressing owl-TRIMCypA over control CHO cells (infectivity ratio) [3]: < 0.4 | restriction of infection: ratio of infection titers on CHO cells stably expressing mafa-TRIMCypA over control CHO cells (infectivity ratio) [2]: < 0.4
